Source: paper PMC9881579

B1: LHD206B (designed binder)
chain: GRQEKVLKSIEETVRKMGVTMETHRSGNEVKVVIKGLHKSQQEQLLKDVLKTANKQGVNVHISFRGDTVTIRVRE
modifications: not checked
B2: LHD206B, split luciferase construct (designed binder)
chain: B1 chain
modifications: here or on the partner: Strep-tag, sfGFP, GS-linker and split luciferase fragment left out; protomer taken from the unfused monovalent entry / Strep-tag, sfGFP, GS-linker and split luciferase fragment left out; protomer take

Key:
[1] = biological target: LHD206A; assay: BLI; biotinylated protomer on streptavidin biosensors, designed partner in solution; 25 °C; 10 mM HEPES pH 7.4, 150 mM NaCl, 3 mM EDTA, 0.05% Surfactant P20, 1 mg/ml BSA; steady-state fit, 1:1 model
[2] = biological target: LHD206A; assay: BLI; biotinylated protomer on streptavidin biosensors, designed partner in solution; 25 °C; 10 mM HEPES pH 7.4, 150 mM NaCl, 3 mM EDTA, 0.05% Surfactant P20, 1 mg/ml BSA; global kinetic fit, 1:1 model
[3] = biological target: LHD206A, split luciferase construct; assay: split reporter (BiFC, NanoBiT); smBiT:lgBiT equilibrium binding in E. coli lysate; one component at 1 nM, the other titrated; overnight at room temperature; 20 mM sodium phosphate, 100 mM NaCl, pH 7.4, 0.05% Tween 20

Binder	Kd [1] [nM]	Kd [2] [nM]	koff [2] [s⁻¹]	kon [2] [M⁻¹ s⁻¹]	Kd [3] [nM]
B1	8.4	2.8	0.00075	270000	–
B2	–	–	–	–	11
